Laboratory results taken from patent publication US20250064890A1, “PROTEIN COMPOSITIONS FOR THE TREATMENT OF INFLAMMATORY DISEASES” (Unichem Laboratories Limited, priority 2021, published 2025).
Like-named read-outs stand apart in the source and are kept apart here.

Experiments:
Assay type in all cases: cell-based, human
[1] = tested on: oral (buccal) mucosa cells (TR146)
Procedure: The protective effect of the recombinant lectin on survival of TR146 cells against 5-FU induced damage was determined using following calculations:
The viability of cells was determined as: % Cell viability=(100−% Cytotoxicity); • where, the percentage cytotoxicity corresponding to each treatment was calculated as: % Cytotoxicity=[(R−X)/R]*100, wherein X=Absorbance of cells treated with 5-FU or radiation damage/TI+5-FU, R=Absorbance of Control cells (Untreated) and Percentage protection was calculated as:
{(Absorbance of TI+5-FU or radiation)−(Absorbance of 5-FU or radiation alone)/(Absorbance of Untreated)−(Absorbance of 5-FU alone)}*100

[2] = tested on: oral (buccal) mucosa cells (TR146); experiment: Sub(G0/G1) cell population (cell cycle) against radiation induced damage; conditions: for % Decrease in Apoptotic cells (with respect to control): Sub G0/G1
Procedure: To determine the effect of test item on cell cycle, oral buccal mucosal cells (TR146) were incubated overnight in 5% CO2 incubator at 37° C. for 24 h. […] After 24 h of treatment, cells were exposed to chemotherapy (5-FU 10 mM) for 24 h or radiotherapy (Gamma radiation (3.5 kGy) using Cobalt 60) for 2 h.
After incubation, cells were harvested by trypsinization and processed for Cell cycle assay. Accordingly, cells were harvested into prelabeled centrifuge tubes and centrifuged at 450 g for 5 min at room temperature (RT, low brake). The supernatants were removed carefully and discarded. 1 ml of 1× phosphate buffer saline (PBS) was added to the pellet and resuspended gently to make homogenous suspension. Cells were centrifuged at 450 g for 5 min, RT (low brake). The supernatant was carefully removed leaving behind approx. 100 μl of PBS. Cells were resuspended gently yet thoroughly in residual PBS. Ice-cold 70% ethanol (100 μl) was added drop-wise into cells in each tube while vortexing at low speed (fixation step). Cells stored at 4° C. for 24 h were centrifuged at 450 g for 5 min, RT (low brake). The supernatant was carefully removed without touching the pellet and discarded. 1 ml of 1×PBS was added into pellet and resuspended gently. Cells were incubated for 1 minute at RT. Cells were centrifuged at 450 g for 5 min, RT (low brake). The supernatant was removed carefully without touching the pellet, leaving behind approx. 20-50 μl of PBS. 200 μl of cell cycle reagent was added into each tube. Cells were resuspended gently and mixed. Cells were incubated for 30 min at RT in the dark. The stained samples were transferred into 96-well plates and acquired on flow cytometer (Guava technologies). Percentage of cells in Sub (G0/G1) phase were determined based on the concept that cell cycle reagent contains PI stain, which stains DNA of cells in different phases of cell cycle; Sub (G0/G1), G1, S, G2 and M. Cells in Sub (G0/G1) phase correspond to apoptotic cells. Percent inhibition in apoptotic cells is determined by the formula:
=[(% Sub(G0/G1) cells in 5-FU/radiation alone)−(% Sub(G0/G1) cells in TI+5-FU/radiation)/% Sub(G0/G1) cells in 5-FU/radiation alone]*100

CCL-2 = experiment: Multiplex analysis, radiotherapy, TR146
Procedure: (§1) Oral buccal mucosal cells (TR146) cells were incubated overnight at 37° C. in 5% CO2 incubator. […] The cells were then stimulated with 5-FU (10 mM) for another 24h for chemotherapy and with gamma radiation (3.5 kGy) using Cobalt 60 for radiotherapy. After 24 h, cell culture supernatants were collected from each well and stored at −20° C. till multiplex analysis. For NF-kB estimations, cell lysates were prepared. Levels of biomarkers were estimated using Magpix® multiplex machine. The cells treated with Amifostine (along with 5-FU or radiation) were considered as positive control (PC). Untreated cells (5-FU or radiation alone treated) were used as negative control (NC).
(§2) The percent modulation in each sample was determined as follows:
(§3) [{Concentration of biomarkers (pg/ml) in Control cells (5-FU or radiation alone treated)−Concentration of biomarkers (pg/ml) in SEQ ID NO: 2+5-FU or radiation treated cells)}/Concentration of biomarkers (pg/ml) in Control cells (5-FU or radiation alone treated)]*100

IL-1β = experiment: Multiplex analysis, radiotherapy, TR146
Procedure: as §1, §2, §3

IL-6 = experiment: Multiplex analysis, radiotherapy, TR146
Procedure: as §1, §2, §3

MMP-3 = experiment: Multiplex analysis, radiotherapy, TR146
Procedure: as §1, §2, §3

MMP-8 = experiment: Multiplex analysis, radiotherapy, TR146
Procedure: as §1, §2, §3

RAGE = experiment: Multiplex analysis, radiotherapy, TR146
Procedure: as §1, §2, §3

TNF-α = experiment: Multiplex analysis, radiotherapy, TR146
Procedure: as §1, §2, §3

VEGF = experiment: Multiplex analysis, radiotherapy, TR146
Procedure: as §1, §2, §3

[3] = 0.01 μg/ml + Radiation (3.5 kGy)
[4] = 0.1 μg/ml + Radiation (3.5 kGy)

B1: SEQ ID NO 2: recombinant lectin, variant of the S. rolfsii lectin amino acid sequence (reported as Rec-2 in WO 2010/095143) (protein)
chain: TYKITVRVYQTNPDAFFHPVEKTVWKYANGGTWTITDDQHVLTMGGSGTSGTLRFHADNGESFTATFGVHNYKRWCDIVTNLAADETGMVINQQYYSQKNREEARERQLSNYQVKNAKGRNFQIVYTEAEGNDLHANLIIG
% Protection [1, 3]: 2.5%
maximum cytoprotection ([1]; 0.01 μg/ml-25 μg/ml, radiation): 54.1%
% Protection [1, 4]: 14.1%
% Protection ([1]; 1 μg/ml + Radiation (3.5 kGy)): 47.4%
% Protection ([1]; 10 μg/ml + Radiation (3.5 kGy)): 54.1%
% Protection ([1]; 25 μg/ml + Radiation (3.5 kGy)): 8.9%
% Apoptotic cells (Sub G0/G1) [2, 3]: 15.2%
% Decrease in Apoptotic cells (with respect to control) [2, 3]: 56.9%
% Apoptotic cells (Sub G0/G1) [2, 4]: 14.3%
% Decrease in Apoptotic cells (with respect to control) [2, 4]: 59.5%
% Apoptotic cells (Sub G0/G1) ([2]; 1 μg/ml + Radiation (3.5 kGy)): 22.3%
% Decrease in Apoptotic cells (with respect to control) ([2]; 1 μg/ml + Radiation (3.5 kGy)): 36.9%
% Apoptotic cells (Sub G0/G1) ([2]; 10 μg/ml + Radiation (3.5 kGy)): 35.7%
% Decrease in Apoptotic cells (with respect to control) ([2]; 10 μg/ml + Radiation (3.5 kGy)): −1.3%
Percentage Inhibition CCL-2 (CCL-2; [3]): 0.1%
Percentage Inhibition CCL-2 (CCL-2; [4]): 23.1%
Percentage Inhibition CCL-2 (CCL-2; 1 μg/ml + Radiation (3.5 kGy)): 23.1%
Percentage Inhibition CCL-2 (CCL-2; 10 μg/ml + Radiation (3.5 kGy)): 23.1%
Percentage Inhibition CCL-2 (CCL-2; 25 μg/ml + Radiation (3.5 kGy)): 0%
CCL-2 against radiation induced levels (CCL-2; radiation, in words): downregulation
Percentage Inhibition IL-1β (IL-1β; [3]): −17.3%
Percentage Inhibition IL-1β (IL-1β; [4]): −15.1%
Percentage Inhibition IL-1β (IL-1β; 1 μg/ml + Radiation (3.5 kGy)): −11.5%
Percentage Inhibition IL-1β (IL-1β; 10 μg/ml + Radiation (3.5 kGy)): −44.8%
Percentage Inhibition IL-1β (IL-1β; 25 μg/ml + Radiation (3.5 kGy)): −97.1%
Percentage Inhibition IL-6 (IL-6; [3]): −0.2%
Percentage Inhibition IL-6 (IL-6; [4]): 3.1%
Percentage Inhibition IL-6 (IL-6; 1 μg/ml + Radiation (3.5 kGy)): 3.8%
Percentage Inhibition IL-6 (IL-6; 10 μg/ml + Radiation (3.5 kGy)): 7.7%
Percentage Inhibition IL-6 (IL-6; 25 μg/ml + Radiation (3.5 kGy)): 5.2%
Percentage Inhibition MMP-3 (MMP-3; [3]): 42.8%
Percentage Inhibition MMP-3 (MMP-3; [4]): 51.9%
Percentage Inhibition MMP-3 (MMP-3; 1 μg/ml + Radiation (3.5 kGy)): 47.4%
Percentage Inhibition MMP-3 (MMP-3; 10 μg/ml + Radiation (3.5 kGy)): 47.4%
Percentage Inhibition MMP-3 (MMP-3; 25 μg/ml + Radiation (3.5 kGy)): 28.8%
MMP-3 against radiation induced levels (MMP-3; radiation, in words): downregulation
Percentage Inhibition MMP-8 (MMP-8; [3]): 1.8%
Percentage Inhibition MMP-8 (MMP-8; [4]): 13.9%
Percentage Inhibition MMP-8 (MMP-8; 1 μg/ml + Radiation (3.5 kGy)): 11%
Percentage Inhibition MMP-8 (MMP-8; 10 μg/ml + Radiation (3.5 kGy)): 8.5%
Percentage Inhibition MMP-8 (MMP-8; 25 μg/ml + Radiation (3.5 kGy)): 7.6%
MMP-8 against radiation induced levels (MMP-8; radiation, in words): downregulation
Percentage Inhibition RAGE (RAGE; [3]): 38.8%
Percentage Inhibition RAGE (RAGE; [4]): 42.6%
Percentage Inhibition RAGE (RAGE; 1 μg/ml + Radiation (3.5 kGy)): 47.6%
Percentage Inhibition RAGE (RAGE; 10 μg/ml + Radiation (3.5 kGy)): 53.5%
Percentage Inhibition RAGE (RAGE; 25 μg/ml + Radiation (3.5 kGy)): 39.1%
RAGE against radiation induced levels (RAGE; radiation, in words): downregulation
Percentage Inhibition TNF-α (TNF-α; [3]): 43.2%
Percentage Inhibition TNF-α (TNF-α; [4]): 45.2%
Percentage Inhibition TNF-α (TNF-α; 1 μg/ml + Radiation (3.5 kGy)): 39.6%
Percentage Inhibition TNF-α (TNF-α; 10 μg/ml + Radiation (3.5 kGy)): 47.1%
Percentage Inhibition TNF-α (TNF-α; 25 μg/ml + Radiation (3.5 kGy)): 41%
TNF-α against radiation induced levels (TNF-α; radiation, in words): downregulation
Percentage Inhibition VGEF (VEGF; [3]): 0.9%
Percentage Inhibition VGEF (VEGF; [4]): −8.1%
Percentage Inhibition VGEF (VEGF; 1 μg/ml + Radiation (3.5 kGy)): 8.4%
Percentage Inhibition VGEF (VEGF; 10 μg/ml + Radiation (3.5 kGy)): 23.3%
Percentage Inhibition VGEF (VEGF; 25 μg/ml + Radiation (3.5 kGy)): 29.7%
VEGF against radiation induced levels (VEGF; radiation, in words): downregulation
